Reference: patent publication US10034836B2, “Formulations of guanylate cyclase C agonists and methods of use” (SYNERGY PHARMACEUTICALS, INC., priority 2008, dated 2018)
Where a SMILES comes first, the peptide text is derived from it. Bridges are numbered along the chain shown (N, C = ends). Primed or numbered codes have the meaning given here. Where no end group is shown, it is not given here. [ ]: non-standard residue; d: D form. PEG3′ = polyethylene glycol such as aminoethyloxy-ethyloxy-acetic acid (AeeA), and polymers thereof

Columns and labels:
[1] = target: T1, intestinal GC-C receptor (Homo sapiens, UniProt P25092); assay: Cyclic GMP stimulation assay in T84 cells; format: cell-based; conditions: for potency to stimulate cGMP synthesis in T84 cells relative to SP-333: peggylated analogs of SP-333, 30 min (FIG. 8); for potency in cGMP stimulation assay relative to SP-339 (linaclotide): 30 min exposure (FIG. 6); for ability to stimulate cGMP synthesis in T84 cells relative to SP-304: 30 min exposure (FIG. 5)
T1 construct: confluent monolayers of T-84 cells in 24-well plates; host or cells: T84 human colon carcinoma cells
T1 sequence (P25092 24-1073): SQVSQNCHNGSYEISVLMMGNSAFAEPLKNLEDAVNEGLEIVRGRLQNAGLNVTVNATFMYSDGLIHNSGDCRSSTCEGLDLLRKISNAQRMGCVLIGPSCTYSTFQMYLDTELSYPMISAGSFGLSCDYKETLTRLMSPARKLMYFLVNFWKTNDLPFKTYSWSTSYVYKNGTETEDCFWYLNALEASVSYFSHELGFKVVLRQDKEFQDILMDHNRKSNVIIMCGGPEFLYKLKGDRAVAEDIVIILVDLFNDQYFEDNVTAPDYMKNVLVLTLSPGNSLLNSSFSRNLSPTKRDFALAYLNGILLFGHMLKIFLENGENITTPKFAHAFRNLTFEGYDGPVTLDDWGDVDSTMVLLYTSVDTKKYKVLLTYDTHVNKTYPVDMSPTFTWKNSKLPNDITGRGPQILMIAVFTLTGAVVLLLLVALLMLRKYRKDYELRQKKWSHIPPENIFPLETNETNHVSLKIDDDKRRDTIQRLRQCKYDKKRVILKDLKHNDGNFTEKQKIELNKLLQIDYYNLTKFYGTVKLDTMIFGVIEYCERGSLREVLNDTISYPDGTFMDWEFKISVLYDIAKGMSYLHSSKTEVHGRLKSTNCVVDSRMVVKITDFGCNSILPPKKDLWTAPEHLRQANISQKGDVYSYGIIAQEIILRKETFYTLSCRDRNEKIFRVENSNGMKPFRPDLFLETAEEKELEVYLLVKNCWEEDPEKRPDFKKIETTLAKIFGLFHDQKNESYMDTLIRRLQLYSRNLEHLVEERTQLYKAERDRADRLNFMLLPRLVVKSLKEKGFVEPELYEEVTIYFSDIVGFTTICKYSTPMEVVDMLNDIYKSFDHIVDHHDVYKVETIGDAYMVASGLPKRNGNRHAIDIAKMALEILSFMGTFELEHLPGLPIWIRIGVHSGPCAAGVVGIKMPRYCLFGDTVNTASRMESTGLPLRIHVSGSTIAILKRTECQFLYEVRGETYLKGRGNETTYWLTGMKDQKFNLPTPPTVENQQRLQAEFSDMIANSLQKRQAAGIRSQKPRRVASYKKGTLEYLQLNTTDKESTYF
Source text: FIG. 4: Biological activity of truncated peptides of 16-mer SP-304, as measured by stimulation of cGMP synthesis in T84 cells. SP-338 15-mer peptide is indentical to SP-304 except that it lacks Leu at the C-terminus. SP-327, SP-329 and SP-331 lack Leu at their C-termini relative to their corresponding parents, SP-326, SP-328 and SP-330, respectively. Data points shown are the average of duplicate measurements.
FIG. 5: Stimulation of cGMP synthesis in T84 cells by SP-304 and similar analogs. T84 cells were exposed to test peptides for 30 min and cell lysates were then used to determine intracellular cGMP levels. Data points shown are the average of triplicate measurements±SD.
FIG. 6: Stimulation of cGMP synthesis in T84 cells by SP-339 (linaclotide) and other linaclotide analogs. T84 cells were exposed to test peptides for 30 min and cell lysates were then used to determine intracellular cGMP levels. Data points shown are the average of triplicate measurements±SD.
FIG. 8: Stimulation of cGMP synthesis in T84 cells by the peggylated analogs of SP-333. T84 cells were exposed to the indicated peptides for 30 min and cell lysates were used to determine intracellular cGMP levels. Data points shown are the average of triplicate measurements±SD.
After the 30 min incubation, the medium was aspirated and the reaction was terminated by the addition of 3% perchloric acid. Following centrifugation and the addition of NaOH (0.1 N) to neutralize the pH, intracellular cGMP levels were determined in lysates using a cGMP ELISA kit (Cat. No. 581021; Cayman Chemical, Ann Arbor, Mich.). Peptide incubations were run in duplicate, and samples taken from each incubation were run as duplicates in the ELISA test.
The ability of the GCC agonist peptide to bind to and activate the intestinal GC-C receptor was tested using T84 human colon carcinoma cell line. Human T84 colon carcinoma cells were obtained from the American Type Culture Collection. Cells were grown in a 1:1 mixture of Ham's F-12 medium and Dulbecco's modified Eagle's medium (DMEM) supplemented with 10% fetal bovine serum, 100 U penicillin/ml, and 100 μg/ml streptomycin. The cells were fed fresh medium every third day and split at a confluence of approximately 80%.
Biological activity of the GCC agonist peptides was assayed as previously reported (Shailubhai, et al., Cancer Research 60, 5151-5157 (2000)). Briefly, the confluent monolayers of T-84 cells in 24-well plates were washed twice with 250 μl of DMEM containing 50 mM HEPES (pH 7.4), pre-incubated at 37° C. for 10 min with 250 μl of DMEM containing 50 mM HEPES (pH 7.4) and 1 mM isobutylmethylxanthine (IBMX), followed by incubation with GCC agonist peptides (0.1 nM to 10 µM) for 30 min. The medium was aspirated, and the reaction was terminated by the addition of 3% perchloric acid. Following centrifugation, and neutralization with 0.1 N NaOH, the supernatant was used directly for measurements of cGMP using an ELISA kit (Caymen Chemical, Ann Arbor, Mich.).
An additional strategy to render peptides more resistant towards digestion by digestive proteases is to peggylate them at the N- and C-terminus. The peptide SP-333 was peggylated with the aminoethyloxy-ethyloxy-acetic acid (Aeea) group at the C-terminus (SP-347) or at the N-terminus (SP-350) or at both termini (SP-343). Cyclic GMP synthesis in T84 cells was measured by the method as described above.

[2] = Stability in simulated intestinal fluid (SIF), biological activity by cGMP synthesis in T84 cells; format: in vitro ADME
Method: FIG. 2A: Biological activity of SP-304 incubated for varying lengths of time in simulated intestinal fluid (SIF). SP-304 samples were incubated for 0, 30, 60, 90, 150, and 300 min, respectively, and then tested for their ability to stimulate cGMP synthesis in T84 cells. The cGMP stimulation activity in the sample at 0 min of incubation time in SIF was taken as 100% biological activity. The activities of the other SP-304 incubation samples were calculated as the percentage of activity relative to that of the 0 min sample. Data points shown are the average of triplicate measurements±SD.
(§1) FIG. 7A: Biological activity of SP-333 incubated for varying lengths of time in simulated intestinal fluid (SIF). SP-333 samples incubated for 0, 5, 10, 30, 60, and 120 min, respectively, were tested for their ability to stimulate cGMP synthesis in T84 cells. The control sample marked as C120 was produced by incubating SP-333 with heat inactivated SIF for 120 min. Samples from the incubations were removed and heated at 95° C. for 5 min to inactivate digestive enzymes and then used to stimulate cyclic GMP synthesis in T84 cells. The cGMP stimulation activity in the sample at 0 min of incubation time in SIF was taken as 100% biological activity. The activities of the other SP-304 incubation samples were calculated as the percentage of activity relative to that of the 0 min sample. Data points shown are the average of triplicate measurements±SD.
as §1, with “FIG. 7B:” for “FIG. 7A:”, “of SP-332” for “of SP-333”, “incubating SP-332” for “incubating SP-333”
FIG. 7C: Biological activity of SP-304 incubated for varying lengths of time in simulated intestinal fluid (SIF). SP-304 samples incubated for 0, 10, and 60 min, respectively, were tested for their ability to stimulate cGMP synthesis in T84 cells. The control samples marked as C0 and C60 were produced by incubating SP-304 with heat inactivated SIF for 0 and 60 min, respectively. Samples from the incubations were removed and heated at 95° C. for 5 min to inactivate digestive enzymes and then used to stimulate cyclic GMP synthesis in T84 cells. The cGMP stimulation activity in the sample at 0 min of incubation time in SIF was taken as 100% biological activity. The activities of the other SP-304 incubation samples were calculated as the percentage of activity relative to that of the 0 min sample. […]
FIGS. 7G-1-7G-5: Incubation of SP-333 with SIF for 2, 6, 12 and 24 hrs. Effect of SIF digestion on the activity of SP-333 in T84 stimulation assay was determined (FIG. 7G-1) and samples were also analyzed by HPLC (FIGS. 7G2-5). […]
The stability of SP-304 was also evaluated after incubation with simulated intestinal fluid (SIF) by measuring its biological activity and by HPLC analyses (FIGS. 2A & 2B). […]

Row | Compound | potency to stimulate cGMP synthesis in T84 cells relative to SP-333 [1] | potency in cGMP stimulation assay relative to SP-339 (linaclotide) [1] | other results
1 | PEG3-dAsn^1-Asp^2-Glu^3-Cys^4-Glu^5-Leu^6-Cys^7-Val^8-Asn^9-Val^10-Ala^11-Cys^12-Thr^13-Gly^14-Cys^15-dLeu^16 ([PEG3′][dN]DECELCVNVACTGC[dL]; ends and bridges not checked) [SP-350] | comparable to SP-333 | – | –
2 | dAsn^1-Asp^2-Glu^3-Cys^4-Glu^5-Leu^6-Cys^7-Val^8-Asn^9-Val^10-Ala^11-Cys^12-Thr^13-Gly^14-Cys^15-dLeu^16-PEG3 ([dN]DECELCVNVACTGC[dL][PEG3′]; ends and bridges not checked) [SP-347] | comparable to SP-333 | – | –
3 | Asn^1-Asp^2-Glu^3-Cys^4-Glu^5-Leu^6-Cys^7-Val^8-Asn^9-Val^10-Ala^11-Cys^12-Thr^13-Gly^14-Cys^15 (NDECELCVNVACTGC) [SP-338] | – | – | biological activity retained relative to full length 16-mer SP-304 (cGMP synthesis in T84 cells) ([1]; peptide 1.0 μM, 30 min (FIG. 4)): about 80%
4 | Asn^1-Phe^2-Cys^3-Cys^4-Glu^5-Ser^6-Cys^7-Cys^8-Asn^9-Pro^10-Ala^11-Cys^12-Thr^13-Gly^14-Cys^15-Tyr^16 (NFCCESCCNPACTGCY; disulfide 4-12, 7-15, 3-8) [SP-353] | – | more potent than SP-339 | –
5 | PEG3-dAsn^1-Asp^2-Glu^3-Cys^4-Glu^5-Leu^6-Cys^7-Val^8-Asn^9-Val^10-Ala^11-Cys^12-Thr^13-Gly^14-Cys^15-dLeu^16-PEG3 ([PEG3′][dN]DECELCVNVACTGC[dL][PEG3′]; ends and bridges not checked) [SP-343] | considerably less potent | – | –
6 | Asn^1-Phe^2-Cys^3-Cys^4-Glu^5-Phe^6-Cys^7-Cys^8-Asn^9-Pro^10-Ala^11-Cys^12-Thr^13-Gly^14-Cys^15-Tyr^16 (NFCCEFCCNPACTGCY; disulfide 4-12, 7-15, 3-8) [SP-354] | – | virtually identical to SP-339 | –
7 | CC(C)C[C@@H]1NC(=O)[C@H](CCC(=O)O)NC(=O)[C@@H](NC(=O)[C@H](CCC(=O)O)NC(=O)[C@H](CC(=O)O)NC(=O)[C@@H](N)CC(N)=O)CSSC[C@@H]2NC(=O)[C@H](C)NC(=O)[C@H](C(C)C)NC(=O)[C@H](CC(N)=O)NC(=O)[C@H](C(C)C)NC(=O)[C@H](CSSC[C@@H](C(=O)N[C@H](CC(C)C)C(=O)O)NC(=O)CNC(=O)[C@H]([C@@H](C)O)NC2=O)NC1=O [SP-332, Asn^1-Asp^2-Glu^3-Cys^4-Glu^5-Leu^6-Cys^7-Val^8-Asn^9-Val^10-Ala^11-Cys^12-Thr^13-Gly^14-Cys^15-dLeu^16] (H-NDECELCVNVACTGC[dL]-OH; disulfide 4-12, 7-15) | – | – | potency following incubation with SIF [2]: minor reduction in potency
8 | dAsn^1-Asp^2-Glu^3-Cys^4-Glu^5-dLeu^6-Cys^7-Val^8-Asn^9-Val^10-Ala^11-Cys^12-Thr^13-Gly^14-Cys^15-dLeu^16 ([dN]DECE[dL]CVNVACTGC[dL]; ends and bridges not checked) [SP-337] | – | – | ability to stimulate cGMP synthesis in T84 cells relative to SP-304 [1]: virtually complete loss of biological activity
9 | dAsn^1-dAsp^2-dGlu^3-Cys^4-Glu^5-Leu^6-Cys^7-Val^8-Asn^9-Val^10-Ala^11-Cys^12-Thr^13-Gly^14-Cys^15-dLeu^16 ([dN][dD][dE]CELCVNVACTGC[dL]; disulfide (positions not given here); also: disulfides, number and pairing not given here) [SP-335] | – | – | ability to stimulate cGMP synthesis in T84 cells relative to SP-304 [1]: comparable ability
10 | Cys^1-Cys^2-Glu^3-Tyr^4-Cys^5-Cys^6-Asn^7-Pro^8-Ala^9-Cys^10-Thr^11-Gly^12-Cys^13-dTyr^14 [SP-355] | – | considerably less potency | –
